Patent US20180273622A1 (APTEVO RESEARCH AND DEVELOPMENT, published 2018)
Substitutions are numbered along the chain they refer to. Blank lines part the entries; values can stand above or below the binder they belong to.

Assays:
[1] = molecular target: T1, human CD3 (human, UniProt P07766 23-207; P09693 23-182; P04234 22-171; P20963 22-164); assay: flow cytometry on Jurkat T-cells, anti-human IgG detection
T1 construct: whole, on cells; It was presented on the CD3+ Jurkat T-cell line, on a Jurkat subclone with higher CD3 expression, or on human T-cells; also called CD3 on Jurkat T-cells; CD3 on human T-cells
Protocol: Binding studies were performed by standard flow cytometry-based staining procedures using the CD3⁺ Jurkat T-cell line. All labeling and washes were performed in U-bottom 96-well plates in saline buffer with 3% BSA and 2 mM EDTA. Jurkat cells were plated at 200,000 cells per well and incubated with a range of 0.1 nM to 200 nM concentrations of test molecules in 50 μL volume/well, for 30 minutes on ice. Cells were washed three times then incubated for another 30 minutes on ice with fluorescently-labeled minimum cross reactive secondary polyclonal antibody, F(ab′)² goat anti-human IgG, (Jackson ImmunoResearch Laboratories) and the viability dye 7-AAD. The cells were then washed twice, and the samples acquired in a BD LSRII flow cytometer. The sample files were analyzed using FlowJo software; the mean fluorescence intensity (MFI) of the live population of Jurkat cells in each well was calculated after gating on live cells (forward vs. side scatter, then 7-AAD cells).

[2] = molecular target: T1, human CD3; assay: flow cytometry on a Jurkat subclone with higher CD3 expression (FIG. 2)

T1 sequence (P07766 23-207, chain 1 of 4): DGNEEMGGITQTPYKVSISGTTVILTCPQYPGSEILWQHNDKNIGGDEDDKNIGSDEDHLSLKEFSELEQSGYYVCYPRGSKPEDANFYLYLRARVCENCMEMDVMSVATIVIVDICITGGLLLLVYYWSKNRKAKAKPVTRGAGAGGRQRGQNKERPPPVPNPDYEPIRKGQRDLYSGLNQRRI
T1 sequence (P09693 23-182, chain 2 of 4): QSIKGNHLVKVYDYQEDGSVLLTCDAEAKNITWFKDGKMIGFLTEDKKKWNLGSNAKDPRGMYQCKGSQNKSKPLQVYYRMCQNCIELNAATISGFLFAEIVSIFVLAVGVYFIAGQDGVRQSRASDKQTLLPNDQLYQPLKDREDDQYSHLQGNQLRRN
T1 sequence (P04234 22-171, chain 3 of 4): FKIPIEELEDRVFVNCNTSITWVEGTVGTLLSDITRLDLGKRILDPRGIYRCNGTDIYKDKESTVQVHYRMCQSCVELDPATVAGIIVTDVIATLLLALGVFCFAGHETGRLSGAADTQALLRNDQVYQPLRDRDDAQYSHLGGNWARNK
T1 sequence (P20963 22-164, chain 4 of 4): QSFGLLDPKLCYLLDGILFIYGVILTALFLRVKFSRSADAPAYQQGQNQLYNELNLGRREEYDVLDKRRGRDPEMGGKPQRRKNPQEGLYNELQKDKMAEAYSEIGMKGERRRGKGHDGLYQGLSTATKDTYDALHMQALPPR

B3: Fc H10L8 (TSC342) (Fc fusion)
chain: EPKSSDKTHTCPPCPAPEAAGAPSVFLFPPKPKDTLMISRTPEVTCVVVDVSHEDPEVKFNWYVDGVEVHNAKTKPREEQYNSTYRVVSVLTVLHQDWLNGKAYACAVSNKALPAPIEKTISKAKGQPREPQVYTLPPSRDELTKNQVSLTCLVKGFYPSDIAVEWESNGQPENNYKTTPPVLDSDGSFFLYSKLTVDKSRWQQGNVFSCSVMHEALHNHYTQKSLSLSPGQRHNNSSLNTGTQMAGHSPNSQVQLVQSGAEVKKPGSSVKVSCKASGGTFSRSTMHWVRQAPGQGLEWMGYINPSSAYTNYNQKFKDRVTITADKSTSTAYMELSSLRSEDTAVYYCARPQVHYDYNGFPYWGQGTLVTVSSGGGGSGGGGSGGGGSGGGGSDIQMTQSPSTLSASVGDRVTITCSASSSVSYMNWYQQKPGKAPKRWIYDSSKLASGVPSRFSGSGSGTEFTLTISSLQPDDFATYYCQQWSRNPPTFGGGTKVEIKRSSS
notes: Fc anti-CD3 scFv format; The entry is the mature protein
- fold higher EC50 than TSC312 [2]: 2 fold

B4: Fc H10L7 (TSC341) (Fc fusion)
chain: EPKSSDKTHTCPPCPAPEAAGAPSVFLFPPKPKDTLMISRTPEVTCVVVDVSHEDPEVKFNWYVDGVEVHNAKTKPREEQYNSTYRVVSVLTVLHQDWLNGKAYACAVSNKALPAPIEKTISKAKGQPREPQVYTLPPSRDELTKNQVSLTCLVKGFYPSDIAVEWESNGQPENNYKTTPPVLDSDGSFFLYSKLTVDKSRWQQGNVFSCSVMHEALHNHYTQKSLSLSPGQRHNNSSLNTGTQMAGHSPNSQVQLVQSGAEVKKPGSSVKVSCKASGGTFSRSTMHWVRQAPGQGLEWMGYINPSSAYTNYNQKFKDRVTITADKSTSTAYMELSSLRSEDTAVYYCARPQVHYDYNGFPYWGQGTLVTVSSGGGGSGGGGSGGGGSGGGGSEIVLTQSPATLSLSPGERATLSCSASSSVSYMNWYQQKPGLAPRRWIYDSSKLASGIPDRFSGSGSGTDFTLTISRLEPEDFAVYYCQQWSRNPPTFGGGTKVEIKRSSS
notes: as for B3
- fold higher EC50 than TSC312 [2]: 2 fold

The remaining lines, values ahead:

- EC50 [1]: 3.6 nM
- fold increase in the EC50 of binding compared to TSC312 [1]: 2 fold
B1: Fc H10L5 (TSC324) (Fc fusion)
chain: B3 chain with T403S, R438L, W439L, E462D, D473E
notes: Fc anti-CD3 scFv format with H75 linker; The entry is the mature protein

- fold higher EC50 than TSC312 [2]: 2 fold
B2: Fc H10L6 (TSC340) (Fc fusion)
chain: B3 chain with T403S, E462D, D473E
notes: as for B3
